Data from US20240270846A1 (published 2024).
Numbering of substitutions follows the chain as printed. Blank lines part the entries; values can stand above or below the binder they belong to.

Molecular target: T1, CD3 epsilon homodimer protein (UniProt P07766 23-126)
T1 construct: also called CD3 (CD3 epsilon)
Experiment: SPR Biacore T200, CD3 epsilon homodimer on chip, antibody as analyte;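 further: homodimer amine-coupled to a CM4 sensor chip, run at 25 °C in HBS-EP+ buffer, with kinetic parameters derived in Biacore T200 Evaluation Software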

T1 sequence (P07766 23-126): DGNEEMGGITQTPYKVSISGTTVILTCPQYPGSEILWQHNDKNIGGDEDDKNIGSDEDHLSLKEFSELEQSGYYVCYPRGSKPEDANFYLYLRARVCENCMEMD

KD ratio (KD of CE115HA000 / KD of altered form): 1.1
B3: CE115HA000 H chain altered form N31Y (antibody, human IgG1, kappa, L234A L235A, N297A, name in Kabat numbering)
heavy: QVQLVESGGGVVQPGRSLRLSCAASGFTFSYAWMHWVRQAPGKGLEWVAQIKAKSNNYATYYAESVKGRFTISRDDSKNSLYLQMNSLKTEDTAVYYCRYVHYGAYYGVDAWGQGTTVTVSSASTKGPSVFPLAPSSKSTSGGTAALGCLVKDYFPEPVTVSWNSGALTSGVHTFPAVLQSSGLYSLSSVVTVPSSSLGTQTYICNVNHKPSNTKVDKKVEPKSCDKTHTCPPCPAPEAAGGPSVFLFPPKPKDTLMISRTPEVTCVVVDVSHEDPEVKFNWYVDGVEVHNAKTKPREEQYASTYRVVSVLTVLHQDWLNGKEYKCKVSNKALPAPIEKTISKAKGQPREPQVYTLPPSRCELTKNQVSLSCAVKGFYPSDIAVEWESNGQPENNYKTTPPVLDSDGSFFLVSKLTVDKSRWQQGNVFSCSVMHEALHNHYTQKSLSLSPDYKDDDDK
chain: EPKSSDKTHTCPPCPAPELLGGPSVFLFPPKPKDTLMISRTPEVTCVVVDVSHEDPEVKFNWYVDGVEVHNAKTKPREEQYNSTYRVVSVLTVLHQDWLNGKEYKCKVSNKALPAPIEKTISKAKGQPREPQVCTLPPSRDELTKNQVSLWCLVKGFYPSDIAVEWESNGQPENNYKTTPPVLDSDGSFFLYSKLTVDKSRWQQGNVFSCSVMHEALHNRYTQKSLSLSP
light: DIVMTQSPLSLPVTPGEPASISCRSSQSLVHSNRNTYLHWYQQKPGQAPRLLIYKVSNRFSGVPDRFSGSGSGTDFTLKISRVEAEDVGVYYCGQGTQVPYTFGQGTKLEIKRTVAAPSVFIFPPSDEQLKSGTASVVCLLNNFYPREAKVQWKVDNALQSGNSQESVTEQDSKDSTYSLSSTLTLSKADYEKHKVYACEVTHQGLSSPVTKSFNRGEC
notes: one-arm antibody

KD ratio (KD of CE115HA000 / KD of altered form): 0.98
B6: CE115HA000 H chain altered form N31R (antibody, human IgG1, kappa, L234A L235A, N297A, name in Kabat numbering)
heavy: B3 heavy with Y31R
chain: B3 chain
light: B3 light
notes: one-arm antibody

KD ratio (KD of CE115HA000 / KD of altered form): 0.55
B10: CE115HA000 H chain altered form N53H (antibody, human IgG1, kappa, L234A L235A, N297A, name in Kabat numbering)
heavy: B3 heavy with Y31N, N56H
chain: B3 chain
light: B3 light
notes: one-arm antibody

KD ratio (KD of CE115HA000 / KD of altered form): 0.95
B13: CE115HA000 H chain altered form N53G (antibody, human IgG1, kappa, L234A L235A, N297A, name in Kabat numbering)
heavy: B3 heavy with Y31N, N56G
chain: B3 chain
light: B3 light
notes: one-arm antibody

KD ratio (KD of CE115HA000 / KD of altered form): 0.97
B15: CE115HA000 H chain altered form N31K (antibody, human IgG1, kappa, L234A L235A, N297A, name in Kabat numbering)
heavy: B3 heavy with Y31K
chain: B3 chain
light: B3 light
notes: one-arm antibody

KD ratio (KD of CE115HA000 / KD of altered form): 0.62
B16: CE115HA000 H chain altered form N31I (antibody, human IgG1, kappa, L234A L235A, N297A, name in Kabat numbering)
heavy: B3 heavy with Y31I
chain: B3 chain
light: B3 light
notes: one-arm antibody

KD ratio (KD of CE115HA000 / KD of altered form): 0.67
B18: CE115HA000 H chain altered form N31S (antibody, human IgG1, kappa, L234A L235A, N297A, name in Kabat numbering)
heavy: B3 heavy with Y31S
chain: B3 chain
light: B3 light
notes: one-arm antibody

KD ratio (KD of CE115HA000 / KD of altered form): 1.07
B22: CE115HA000 H chain altered form N31W (antibody, human IgG1, kappa, L234A L235A, N297A, name in Kabat numbering)
heavy: B3 heavy with Y31W
chain: B3 chain
light: B3 light
notes: one-arm antibody

KD ratio (KD of CE115HA000 / KD of altered form): 0.94
B24: CE115HA000 H chain altered form N31Q (antibody, human IgG1, kappa, L234A L235A, N297A, name in Kabat numbering)
heavy: B3 heavy with Y31Q
chain: B3 chain
light: B3 light
notes: one-arm antibody

KD ratio (KD of CE115HA000 / KD of altered form): 0.96
B27: CE115HA000 H chain altered form N31H (antibody, human IgG1, kappa, L234A L235A, N297A, name in Kabat numbering)
heavy: B3 heavy with Y31H
chain: B3 chain
light: B3 light
notes: one-arm antibody

KD ratio (KD of CE115HA000 / KD of altered form): 0.55
B29: CE115HA000 H chain altered form N53A (antibody, human IgG1, kappa, L234A L235A, N297A, name in Kabat numbering)
heavy: B3 heavy with Y31N, N56A
chain: B3 chain
light: B3 light
notes: one-arm antibody

KD ratio (KD of CE115HA000 / KD of altered form): 0.55
B32: CE115HA000 H chain altered form N53D (antibody, human IgG1, kappa, L234A L235A, N297A, name in Kabat numbering)
heavy: B3 heavy with Y31N, N56D
chain: B3 chain
light: B3 light
notes: one-arm antibody

Further lines, the binder ahead of its results:

B1: CE115HA000 H chain altered form K52E (antibody, human IgG1, kappa, L234A L235A, N297A, name in Kabat numbering)
heavy: B3 heavy with Y31N, K52E
chain: B3 chain
light: B3 light
notes: one-arm antibody
KD ratio (KD of CE115HA000 / KD of altered form): 19.4

B2: CE115HA000 H chain altered form K52bS (antibody, human IgG1, kappa, L234A L235A, N297A, name in Kabat numbering)
heavy: B3 heavy with Y31N, K54S
chain: B3 chain
light: B3 light
notes: one-arm antibody
KD ratio (KD of CE115HA000 / KD of altered form): 0.58

B4: CE115HA000 H chain altered form K52bL (antibody, human IgG1, kappa, L234A L235A, N297A, name in Kabat numbering)
heavy: B3 heavy with Y31N, K54L
chain: B3 chain
light: B3 light
notes: one-arm antibody
KD ratio (KD of CE115HA000 / KD of altered form): 0.61

B5: CE115HA000 H chain altered form N31G (antibody, human IgG1, kappa, L234A L235A, N297A, name in Kabat numbering)
heavy: B3 heavy with Y31G
chain: B3 chain
light: B3 light
notes: one-arm antibody
KD ratio (KD of CE115HA000 / KD of altered form): 1.37

B7: CE115HA000 H chain altered form N31D (antibody, human IgG1, kappa, L234A L235A, N297A, name in Kabat numbering)
heavy: B3 heavy with Y31D
chain: B3 chain
light: B3 light
notes: one-arm antibody
KD ratio (KD of CE115HA000 / KD of altered form): 1.14

B8: CE115HA000 H chain altered form K52bY (antibody, human IgG1, kappa, L234A L235A, N297A, name in Kabat numbering)
heavy: B3 heavy with Y31N, K54Y
chain: B3 chain
light: B3 light
notes: one-arm antibody
KD ratio (KD of CE115HA000 / KD of altered form): 0.61

B9: CE115HA000 H chain altered form K52Y (antibody, human IgG1, kappa, L234A L235A, N297A, name in Kabat numbering)
heavy: B3 heavy with Y31N, K52Y
chain: B3 chain
light: B3 light
notes: one-arm antibody
KD ratio (KD of CE115HA000 / KD of altered form): 6.47

B11: CE115HA000 H chain altered form N31F (antibody, human IgG1, kappa, L234A L235A, N297A, name in Kabat numbering)
heavy: B3 heavy with Y31F
chain: B3 chain
light: B3 light
notes: one-arm antibody
KD ratio (KD of CE115HA000 / KD of altered form): 1.24

B12: CE115HA000 H chain altered form K52W (antibody, human IgG1, kappa, L234A L235A, N297A, name in Kabat numbering)
heavy: B3 heavy with Y31N, K52W
chain: B3 chain
light: B3 light
notes: one-arm antibody
KD ratio (KD of CE115HA000 / KD of altered form): 2.69

B14: CE115HA000 H chain altered form K52bD (antibody, human IgG1, kappa, L234A L235A, N297A, name in Kabat numbering)
heavy: B3 heavy with Y31N, K54D
chain: B3 chain
light: B3 light
notes: one-arm antibody
KD ratio (KD of CE115HA000 / KD of altered form): 0.56

B17: CE115HA000 H chain altered form K52bQ (antibody, human IgG1, kappa, L234A L235A, N297A, name in Kabat numbering)
heavy: B3 heavy with Y31N, K54Q
chain: B3 chain
light: B3 light
notes: one-arm antibody
KD ratio (KD of CE115HA000 / KD of altered form): 0.62

B19: CE115HA000 H chain altered form K52H (antibody, human IgG1, kappa, L234A L235A, N297A, name in Kabat numbering)
heavy: B3 heavy with Y31N, K52H
chain: B3 chain
light: B3 light
notes: one-arm antibody
KD ratio (KD of CE115HA000 / KD of altered form): 2.65

B20: CE115HA000 H chain altered form K52bA (antibody, human IgG1, kappa, L234A L235A, N297A, name in Kabat numbering)
heavy: B3 heavy with Y31N, K54A
chain: B3 chain
light: B3 light
notes: one-arm antibody
KD ratio (KD of CE115HA000 / KD of altered form): 0.58

B21: CE115HA000 H chain altered form K52bR (antibody, human IgG1, kappa, L234A L235A, N297A, name in Kabat numbering)
heavy: B3 heavy with Y31N, K54R
chain: B3 chain
light: B3 light
notes: one-arm antibody
KD ratio (KD of CE115HA000 / KD of altered form): 0.91

B23: CE115HA000 H chain altered form K52bN (antibody, human IgG1, kappa, L234A L235A, N297A, name in Kabat numbering)
heavy: B3 heavy with Y31N, K54N
chain: B3 chain
light: B3 light
notes: one-arm antibody
KD ratio (KD of CE115HA000 / KD of altered form): 0.43

B25: CE115HA000 H chain altered form K52F (antibody, human IgG1, kappa, L234A L235A, N297A, name in Kabat numbering)
heavy: B3 heavy with Y31N, K52F
chain: B3 chain
light: B3 light
notes: one-arm antibody
KD ratio (KD of CE115HA000 / KD of altered form): 4.04

B26: CE115HA000 H chain altered form K52I (antibody, human IgG1, kappa, L234A L235A, N297A, name in Kabat numbering)
heavy: B3 heavy with Y31N, K52I
chain: B3 chain
light: B3 light
notes: one-arm antibody
KD ratio (KD of CE115HA000 / KD of altered form): 3.54

B28: CE115HA000 H chain altered form N31A (antibody, human IgG1, kappa, L234A L235A, N297A, name in Kabat numbering)
heavy: B3 heavy with Y31A
chain: B3 chain
light: B3 light
notes: one-arm antibody
KD ratio (KD of CE115HA000 / KD of altered form): 0.96

B30: CE115HA000 H chain altered form K52N (antibody, human IgG1, kappa, L234A L235A, N297A, name in Kabat numbering)
heavy: B3 heavy with Y31N, K52N
chain: B3 chain
light: B3 light
notes: one-arm antibody
KD ratio (KD of CE115HA000 / KD of altered form): 3.29

B31: CE115HA000 H chain altered form K52R (antibody, human IgG1, kappa, L234A L235A, N297A, name in Kabat numbering)
heavy: B3 heavy with Y31N, K52R
chain: B3 chain
light: B3 light
notes: one-arm antibody
KD ratio (KD of CE115HA000 / KD of altered form): 0.8

B33: CE115HA000 H chain altered form K52S (antibody, human IgG1, kappa, L234A L235A, N297A, name in Kabat numbering)
heavy: B3 heavy with Y31N, K52S
chain: B3 chain
light: B3 light
notes: one-arm antibody
KD ratio (KD of CE115HA000 / KD of altered form): 92.1
